B1: WDFY1 (parent)
chain: LLIPKEDGVITASEDRTIRVWLKR

Variants of: B1
Test: protein stability index of a GFP-peptide fusion (GPS, HEK-293T) (PSI 1-6); higher = more stable
Settings: c terminus: a fixed tail appended
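Note: lentivirally expressed fusions sorted by FACS into six bins by GFP to DsRed ratio, PSI derived from sequencing read proportions per bin multiplied by bin number.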

Row | Variant | protein stability index
1 | LLIPKEDGVITAPEDRTIRVWLKR [S13P] | 1.66
2 | LLIPKEDGVITAYEDRTIRVWLKR [S13Y] | 2.08
3 | LLIPKEDGVITADEDRTIRVWLKR [S13D] | 2.53
4 | LLIPKEDGVITATEDRTIRVWLKR [S13T] | 2.2
5 | LLIPKEDGVITAIEDRTIRVWLKR [S13I] | 2.57
6 | LLIPKEDGVITAAEDRTIRVWLKR [S13A] | 1.56
7 | LLIPKEDGVITANEDRTIRVWLKR [S13N] | 1.99
8 | LLIPKEDGVITAGEDRTIRVWLKR [S13G] | 2.42
9 | LLIPKEDGVITAVEDRTIRVWLKR [S13V] | 2.32
10 | LLIPKEDGVITACEDRTIRVWLKR [S13C] | 1.51
11 | LLIPKEDGVITAEEDRTIRVWLKR [S13E] | 1.5
12 | LLIPKEDGVITAKEDRTIRVWLKR [S13K] | 2.06
13 | LLIPKEDGVITAHEDRTIRVWLKR [S13H] | 1.91
14 | LLIPKEDFVITASEDRTIRVWLKR [G8F] | 1.48
15 | LLIPKEDVVITASEDRTIRVWLKR [G8V] | 1.58
16 | LLIPKEDEVITASEDRTIRVWLKR [G8E] | 1.31
17 | LLIPKEDLVITASEDRTIRVWLKR [G8L] | 1.03
18 | LLIPKEDQVITASEDRTIRVWLKR [G8Q] | 1.58
19 | LLIPKEDDVITASEDRTIRVWLKR [G8D] | 2.27
20 | LLIPKEDKVITASEDRTIRVWLKR [G8K] | 1.99
21 | LLIPKEDIVITASEDRTIRVWLKR [G8I] | 1.41
22 | LLIPKEDSVITASEDRTIRVWLKR [G8S] | 1.95
23 | LLIPKEDCVITASEDRTIRVWLKR [G8C] | 2.23
24 | LLIPKEDHVITASEDRTIRVWLKR [G8H] | 1.78

Row | Variant | protein stability index
25 | LLIPKEDRVITASEDRTIRVWLKR [G8R] | 2.3
26 | LLIPKEDPVITASEDRTIRVWLKR [G8P] | 2.41
27 | LLIPKEDNVITASEDRTIRVWLKR [G8N] | 2.07
28 | LLIPKEDYVITASEDRTIRVWLKR [G8Y] | 1.74
29 | LLIPKEDWVITASEDRTIRVWLKR [G8W] | 1.94
30 | LLIPKEDTVITASEDRTIRVWLKR [G8T] | 2.55
31 | LLIPKEDMVITASEDRTIRVWLKR [G8M] | 1.14
32 | LLIPKEDGVISASEDRTIRVWLKR [T11S] | 2.42
33 | LLIPKEDGVIRASEDRTIRVWLKR [T11R] | 3.1
34 | LLIPKEDGVIEASEDRTIRVWLKR [T11E] | 2.26
35 | LLIPKEDGVIFASEDRTIRVWLKR [T11F] | 2.4
36 | LLIPKEDGVIHASEDRTIRVWLKR [T11H] | 2.56
37 | LLIPKEDGVIMASEDRTIRVWLKR [T11M] | 1.5
38 | LLIPKEDGVICASEDRTIRVWLKR [T11C] | 2.7
39 | LLIPKEDGVIPASEDRTIRVWLKR [T11P] | 2.65
40 | LLIPKEDGVIWASEDRTIRVWLKR [T11W] | 1.72
41 | LLIPKEDGVIKASEDRTIRVWLKR [T11K] | 2.03
42 | LLIPKEDGVIQASEDRTIRVWLKR [T11Q] | 1.72
43 | LLIPKEDGVIIASEDRTIRVWLKR [T11I] | 2.15
44 | LLIPKEDGVIVASEDRTIRVWLKR [T11V] | 2.19
45 | LLIPKEDGVINASEDRTIRVWLKR [T11N] | 1.82
46 | LLIPKEDGVIGASEDRTIRVWLKR [T11G] | 1.98
47 | LLIPKEDGVIAASEDRTIRVWLKR [T11A] | 2.43
48 | LLIPKEDGVITASQDRTIRVWLKR [E14Q] | 2.14

Row | Variant | protein stability index
49 | LLIPKEDGVITASWDRTIRVWLKR [E14W] | 1
50 | LLIPKEDGVITASGDRTIRVWLKR [E14G] | 2.29
51 | LLIPKEDGVITASDDRTIRVWLKR [E14D] | 3.39
52 | LLIPKEDGVITASKDRTIRVWLKR [E14K] | 1.93
53 | LLIPKEDGVITASIDRTIRVWLKR [E14I] | 2.76
54 | LLIPKEDGVITASYDRTIRVWLKR [E14Y] | 1.32
55 | LLIPKEDGVITASTDRTIRVWLKR [E14T] | 1.73
56 | LLIPKEDGVITASCDRTIRVWLKR [E14C] | 2.41
57 | LLIPKEDGVITASADRTIRVWLKR [E14A] | 1.71
58 | LLIPKEDGVITASRDRTIRVWLKR [E14R] | 2.78
59 | LLIPKEDGVITASVDRTIRVWLKR [E14V] | 1.9
60 | LLIPKEDGVITASMDRTIRVWLKR [E14M] | 2.62
61 | LLIPKEDGVITASFDRTIRVWLKR [E14F] | 2.37
62 | LLIPKEDGVITASPDRTIRVWLKR [E14P] | 2.62
63 | LLIPKEKGVITASEDRTIRVWLKR [D7K] | 1.56
64 | LLIPKEGGVITASEDRTIRVWLKR [D7G] | 1.77
65 | LLIPKEFGVITASEDRTIRVWLKR [D7F] | 2.7
66 | LLIPKECGVITASEDRTIRVWLKR [D7C] | 1.75
67 | LLIPKEQGVITASEDRTIRVWLKR [D7Q] | 2.1
68 | LLIPKEHGVITASEDRTIRVWLKR [D7H] | 1.42
69 | LLIPKELGVITASEDRTIRVWLKR [D7L] | 2.05
70 | LLIPKEEGVITASEDRTIRVWLKR [D7E] | 3.03
71 | LLIPKENGVITASEDRTIRVWLKR [D7N] | 1.58
72 | LLIPKEMGVITASEDRTIRVWLKR [D7M] | 1.44

Row | Variant | protein stability index
73 | LLIPKEAGVITASEDRTIRVWLKR [D7A] | 2.06
74 | LLIPKEIGVITASEDRTIRVWLKR [D7I] | 1.28
75 | LLIPKEYGVITASEDRTIRVWLKR [D7Y] | 1.3
76 | LLIPKEWGVITASEDRTIRVWLKR [D7W] | 1.33
77 | LLIPKESGVITASEDRTIRVWLKR [D7S] | 1.39
78 | LLIPKEVGVITASEDRTIRVWLKR [D7V] | 1.8
79 | LLIPKETGVITASEDRTIRVWLKR [D7T] | 2.37
80 | LLIPKEPGVITASEDRTIRVWLKR [D7P] | 1.66
81 | LLIVKEDGVITASEDRTIRVWLKR [P4V] | 2.67
82 | LLITKEDGVITASEDRTIRVWLKR [P4T] | 1.89
83 | LLIHKEDGVITASEDRTIRVWLKR [P4H] | 1.75
84 | LLIMKEDGVITASEDRTIRVWLKR [P4M] | 1.88
85 | LLINKEDGVITASEDRTIRVWLKR [P4N] | 2.19
86 | LLIGKEDGVITASEDRTIRVWLKR [P4G] | 1.74
87 | LLIWKEDGVITASEDRTIRVWLKR [P4W] | 2.35
88 | LLIRKEDGVITASEDRTIRVWLKR [P4R] | 2.46
89 | LLIQKEDGVITASEDRTIRVWLKR [P4Q] | 1.5
90 | LLILKEDGVITASEDRTIRVWLKR [P4L] | 1.79
91 | LLIYKEDGVITASEDRTIRVWLKR [P4Y] | 1.51
92 | LLISKEDGVITASEDRTIRVWLKR [P4S] | 2.54
93 | LLIIKEDGVITASEDRTIRVWLKR [P4I] | 1.52
94 | LLIFKEDGVITASEDRTIRVWLKR [P4F] | 2.78
